From patent US7098012 come the findings set out here.

For data set [1], the system named is DNA demethylase (DNA dMTase) purified from A549 nuclear extract (Homo sapiens). To be noted: Km, 37 C, buffer L.
Data set [2] has the same test system. As to the kind of experiment: inhibition. To be noted: 5mC at CpG; oligonucleotide sequence only as image; preparation of enzyme not stated.

Like-named read-outs stand apart in the source and are kept apart here.

Substance “SssI-methylated pBluescript SK(+) plasmid” had an activity in data set [1] (5mC at all CpG, Vmax 40.42 pmol/h) of 3.3 nM.

By Ki is commonly meant a measure of affinity in units of concentration, obtained from inhibition or displacement. Consider “double stranded CmG oligonucleotide inhibitor”, for which the inhibition constant Ki in data set [2] is 50 nM. Take fully methylated poly[mdCpdG]n: in data set [1] (5mC at all C of CpG, Vmax 340 pmol/h), the activity worked out at 2.5 nM.

With hemimethylated [dCpdG]n*[mdCpdG]n, the activity in data set [1] (5mC on one strand, Vmax 402 pmol/h) was found to be 6 nM.
